How the values were obtained:
[1] = biological target: T1, recombinant cMet/HGFR with c-terminal His-tag, Cy5-labeled (UniProt P08581 25-932, limits assumed, Cy5 label (reacted with Cy5 Mono NHS Ester; sites not stated)); experiment: competitive TR-FRET (Eu-amivantamab/Cy5-c-MET), EC50 ratio vs Reference Material; Ex. 11 drug product, 3 months at 5 C
T1 construct: Commercial protein; also called Cy5-c-MET; Cy5-labeled c-MET antigen; not shown: C-terminal His-tag
Source text: (§1) In this procedure, varying concentrations of unlabeled bispecific EGFR-cMet antibody sample compete with donor fluorophore (Europium (Eu) chelate) labeled bispecific EGFR-cMet antibody for binding to an acceptor fluorophore (Cy5)-labeled c-MET antigen. Excitation of the donor fluorophore results in a transfer of energy to the bound acceptor fluorophore (FRET process). The resultant FRET is detected by emission of light at 665 nm using a microplate reader capable of measuring time-resolved fluorescence. Sample dose response curves are compared to the Reference Material (RM).
(§2) c-MET Binding Materials and Methods. Certified commercial cMet, a recombinant cMet/HGFR with c-terminal His-tag is reacted with certified commercial Cy5 Mono NHS Ester to produce Cy5-labeled c-MET. Validated bispecific EGFR-cMet antibody is reacted with certified commercial Europium (Eu) chelate to produce Eu labeled bispecific EGFR-cMet antibody. […] Fluorescence is then measured by spectrophotometry at 665 nm, plotted against antibody concentration and analyzed by a four-parameter logistic model. The antibody concentration required to obtain half of the maximum fluorescence response (EC50) is determined for RM, assay control and samples. The potencies of assay control and samples are calculated based on the ratio of the sample (or control) and RM EC50 values and reported as a percentage activity relative to the RM.

[2] = biological target: T2, recombinant human EGFR/ErbB1/HER1 with C-terminal His tag, Cy5-labeled (human, UniProt P00533 25-645, Cy5 label (reacted with Cy5 Mono NHS Ester; sites not stated)); experiment: competitive TR-FRET (Eu-amivantamab/Cy5-EGFR), EC50 ratio vs Reference Material; Ex. 3 acetate formulation, 6 months at 25 C then 5 freeze/thaw cycles
T2 construct: Commercial protein; also called Cy5-EGFR; Cy5-labeled EGFR antigen; not shown: C-terminal His tag
Source text: as §1, with “EGFR” for “c-MET”, “RM.” for “Reference Material (RM).”
as §2, with “EGFR” for “c-MET”, “EGFR,” for “cMet,”, “human EGFR/ErbB1/HER1” for “cMet/HGFR”, “C-terminal His tag” for “c-terminal His-tag”, “EGFR.” for “c-MET.”, “Eu-labeled” for “Eu labeled”

[3] = biological target: T1, recombinant cMet/HGFR with c-terminal …; experiment: competitive TR-FRET (Eu-amivantamab/Cy5-c-MET), EC50 ratio vs Reference Material; Ex. 12 drug product with rHuPH20, 3 months at 5 C
Source text: as §1, §2

[4] = biological target: T1, recombinant cMet/HGFR with c-terminal …; experiment: competitive TR-FRET (Eu-amivantamab/Cy5-c-MET), EC50 ratio vs Reference Material; Ex. 11 drug product, 0 months, 5 C table
Source text: as §1, §2

[5] = biological target: T1, recombinant cMet/HGFR with c-terminal …; experiment: competitive TR-FRET (Eu-amivantamab/Cy5-c-MET), EC50 ratio vs Reference Material; Ex. 11 drug product, 9 months at 5 C
Source text: as §1, §2

[6] = biological target: T2, recombinant human EGFR/ErbB1/HER1 with …; experiment: competitive TR-FRET (Eu-amivantamab/Cy5-EGFR), EC50 ratio vs Reference Material; Ex. 2 Formulation 3 (acetate), 3 months at 5 C
Source text: as §1, with “EGFR” for “c-MET”, “RM.” for “Reference Material (RM).”
as §2, with “EGFR” for “c-MET”, “EGFR,” for “cMet,”, “human EGFR/ErbB1/HER1” for “cMet/HGFR”, “C-terminal His tag” for “c-terminal His-tag”, “EGFR.” for “c-MET.”, “Eu-labeled” for “Eu labeled”

[7] = biological target: T1, recombinant cMet/HGFR with c-terminal …; experiment: competitive TR-FRET (Eu-amivantamab/Cy5-c-MET), EC50 ratio vs Reference Material; Ex. 2 Formulation 2 (50 mM histidine), 3 months at 5 C
Source text: as §1, §2

[8] = biological target: T1, recombinant cMet/HGFR with c-terminal …; experiment: competitive TR-FRET (Eu-amivantamab/Cy5-c-MET), EC50 ratio vs Reference Material; Ex. 2 Formulation 3 (acetate), 3 months at 40 C
Source text: as §1, §2

[9] = biological target: T2, recombinant human EGFR/ErbB1/HER1 with …; experiment: competitive TR-FRET (Eu-amivantamab/Cy5-EGFR), EC50 ratio vs Reference Material; Ex. 11 drug product, 3 months at 5 C
Source text: as §1, with “EGFR” for “c-MET”, “RM.” for “Reference Material (RM).”
as §2, with “EGFR” for “c-MET”, “EGFR,” for “cMet,”, “human EGFR/ErbB1/HER1” for “cMet/HGFR”, “C-terminal His tag” for “c-terminal His-tag”, “EGFR.” for “c-MET.”, “Eu-labeled” for “Eu labeled”

- cMET Binding activity relative to Reference Material (%) [1]: 97%
- EGFR Binding % activity relative to RM [2]: 95%
- cMET Binding activity relative to Reference Material (%) [3]: 97%
- cMET Binding activity relative to Reference Material (%) [4]: 85%
- cMET Binding activity relative to Reference Material (%) [5]: 101%
- EGFR Binding % activity relative to RM [6]: 87%
- cMET Binding % activity relative to RM [7]: 98%
- cMET Binding % activity relative to RM [8]: 85%
- EGFR Binding activity relative to Reference Material (%) [9]: 74%
B1: amivantamab (bispecific antibody, human IgG1, kappa)
heavy 1: not shown
light 1: not shown
heavy 2: not shown
light 2: DIQMTQSPSSVSASVGDRVTITCRASQGISNWLAWFQHKPGKAPKLLIYAASSLLSGVPSRFSGSGSGTDFTLTISSLQPEDFATYYCQQANSFPITFGQGTRLEIKRTVAAPSVFIFPPSDEQLKSGTASVVCLLNNFYPREAKVQWKVDNALQSGNSQESVTEQDSKDSTYSLSSTLTLSKADYEKHKVYACEVTHQGLSSPVTKSFNRGEC
notes: The samples tested were high concentration (160 mg/mL) formulations, fresh or stored or stressed; also called JNJ-61186372; bispecific EGFR-cMet antibody
